Source: US20180117174A1 (GANYMED PHARMACEUTICALS, published 2018)
Changes are numbered by the printed parent chain.

B1: IMAB362 (antibody, V domains shown)
VH: QVQLQQPGAELVRPGASVKLSCKASGYTFTSYWINWVKQRPGQGLEWIGNIYPSDSYTNYNQKFKDKATLTVDKSSSTAYMQLSSPTSEDSAVYYCTRSWRGNSFDYWGQGTTLTVSS
VL: DIVMTQSPSSLTVTAGEKVTMSCKSSQSLLNSGNQKNYLTWYQQKPGQPPKLLIYWASTRESGVPDRFTGSGSGTDFTLTISSVQAEDLAVYYCQNDYSYPFTFGSGTKLEIKR
notes: Chimeric human IgG1 kappa; CDR1 at 45-52); also called chim mAb362; chim mAB362
B2: mu mAB362 (mouse IgG2a) (antibody, V domains shown)
VH: B1 VH
VL: DIVMTQSPSSLTVTAGEKVTMSCKSSQSLLNSGNQKNYLTWYQQKPGQPPKLLIYWASTRESGVPDRFTGSGSGTDFTLTISSVQAEDLAVYYCQNDYSYPFTFGSGTKLEIK
notes: Mouse IgG2a form of mu mAB362; also called mu muAB362 (IgG2a)
B3: IMAB362-vcMMAE (antibody, human IgG1, kappa, V domains shown)
VH: B1 VH
VL: B1 VL
modifications: vcMMAE (Val-Cit linker) coupled to sulfhydryl groups set on lysine amines with 2-iminothiolane; drug to antibody ratio 4.5; sites not stated
notes: also called MMAE-conjugated IMAB362
B4: IMAB362-DM4 (antibody, human IgG1, kappa, V domains shown)
VH: B1 VH
VL: B1 VL
modifications: DM4 coupled via SPDB linker to primary amines (lysine side chains or N-terminus) of the antibody; drug to antibody ratio 3.2; sites not stated
B5: chim mAB294 (antibody, V domains shown)
VH: QIQLVQSGPELKKPGETVKISCKASGYTFTNYGMNWVKQAPGKGLKWMGWINTNTGEPTYAEEFKGRFAFSLETSASTAYLQINNLKNEDTATYFCARLGFGNAMDYWGQGTSVTVSS
VL: B1 VL with F102L, S106A, I112L
B6: mu mAB362 (mouse IgG1) (antibody, V domains shown)
VH: B1 VH
VL: B2 VL
notes: also called mu muAB362 (IgG1)

Assays:
[1] = target: human claudin 18 splice variant 2 (CLDN18.2) (human); experiment: cell-based or functional assay
[2] = target: human claudin 18 splice variant 2 (CLDN18.2) (human); experiment: cell-based or functional assay; remark: listed apart in the source
[3] = target: human claudin 18 splice variant 2 (CLDN18.2) (human); experiment: cell-based or functional assay; remark: listed apart in the source
[4] = target: T1, human claudin 18 splice variant 2 (CLDN18.2) (human); experiment: flow cytometry on BxPC-3~CLDN18.2 cells, second assay
T1 construct: also called claudin 18 isotype 2

[5] = target: T1, human claudin 18 splice variant 2 …; experiment: flow cytometry on BxPC-3~CLDN18.2 cells, antibody up to 20 µg/ml
Method: (§1) 100 μl of the cell suspension per well (correspond to 2×10⁵ cells/well) were transferred to a round bottom 96-well microtiter plate. […] The cells were centrifuged for 1 min at 1500 rpm and the supernatant was discarded. […] After incubation, 100 μl FACS buffer were added to each sample, the cells were centrifuged for 1 min at 1500 rpm and the supernatant was discarded. The washing step with FACS buffer was repeated twice. Finally, the cells were resuspended in 100 μl FACS buffer and binding was determined using a BD FACS Array Bioanalyzer.

[6] = target: T1, human claudin 18 splice variant 2 …; experiment: flow cytometry on HEK293~CLDN18.2 cells, antibody up to 20 µg/ml
Method: Binding was analyzed by flow cytometry at antibody concentrations up to 20 μg/ml. Data points (n=2 replicates) are depicted as mean±SD.
as §1
The binding specificity was analyzed by flow cytometry using HEK293 transfectants engineered to overexpress human CLDN18.2 or the highly homologous protein human CLDN18.1.

[7] = target: T1, human claudin 18 splice variant 2 …; experiment: flow cytometry on NCI-N87~CLDN18.2 cells, antibody up to 20 µg/ml
Method: as §1

[8] = target: T1, human claudin 18 splice variant 2 …; experiment: flow cytometry (Table 6); ProteinL-FITC detection; binding assay 2
Method: as §1
(§2) Antibodies marked with the same number (1 or 2) were tested in the same binding assay.

[9] = target: T1, human claudin 18 splice variant 2 …; experiment: flow cytometry on NUGC-4 10cE8 cells (endogenous CLDN18.2), second assay
[10] = target: T1, human claudin 18 splice variant 2 …; experiment: flow cytometry (Table 6); APC-conjugated secondary antibody; binding assay 1
Method: as §1, §2

[11] = target: T1, human claudin 18 splice variant 2 …; experiment: flow cytometry on NUGC-4 10cF7-5 sort 3a cells (endogenous CLDN18.2), second assay
[12] = target: T1, human claudin 18 splice variant 2 …; experiment: flow cytometry, HEK293 cells stably expressing CLDN18.2; ProteinL-FITC detection; binding assay 4
[13] = target: T1, human claudin 18 splice variant 2 …; experiment: flow cytometry, HEK293 cells stably expressing CLDN18.2; APC-conjugated secondary antibody; binding assay 1
[14] = target: T1, human claudin 18 splice variant 2 …; experiment: flow cytometry, HEK293 cells stably expressing CLDN18.2; APC-conjugated secondary antibody; binding assay 2
[15] = target: T1, human claudin 18 splice variant 2 …; experiment: flow cytometry, HEK293 cells stably expressing CLDN18.2; APC-conjugated secondary antibody; binding assay 3
Method: as §1

[16] = target: T1, human claudin 18 splice variant 2 …; experiment: flow cytometry (Table 6); ProteinL-FITC detection
Method: as §1

[17] = target: T1, human claudin 18 splice variant 2 …; experiment: flow cytometry (Table 6); ProteinL-FITC detection; normalized to IMAB362
Method: as §1

[18] = target: T1, human claudin 18 splice variant 2 …; experiment: flow cytometry, HEK293 cells stably expressing CLDN18.2; ProteinL-FITC detection; binding assay 4; normalized to IMAB362
Method: as §1

[19] = target: T1, human claudin 18 splice variant 2 …; experiment: cell-based or functional assay; remark: listed apart in the source
[20] = target: T1, human claudin 18 splice variant 2 …; experiment: flow cytometry on NUGC-4 10cE8 cells (endogenous CLDN18.2), antibody up to 20 µg/ml
Method: as §1
Binding properties were tested at different antibody concentrations in a range of 0.1 to 20 μg/ml (FIG. 4, Table 8).

[21] = target: T1, human claudin 18 splice variant 2 …; experiment: flow cytometry on NUGC-4 10cF7-5 sort 3a cells (endogenous CLDN18.2), antibody up to 20 µg/ml
Method: as §1

[22] = target: T1, human claudin 18 splice variant 2 …; experiment: flow cytometry (Table 6); ProteinL-FITC detection; binding assay 2; normalized to IMAB362
[23] = target: T1, human claudin 18 splice variant 2 …; experiment: flow cytometry, HEK293 cells stably expressing CLDN18.2; APC-conjugated secondary antibody; binding assay 3; normalized to IMAB362
Method: as §1

Binder	Cell viability EC50 [ng/ml], Fab-ZAP endocytosis assay on HEK293~CLDN18.2 cells [1] [ng/mL]	ADCC EC50 [ng/ml], NUGC-4 10cF7_5 sort3a p3151#10 cells, PBMC of Donor 1 [2] [ng/mL]	ADCC EC50 [ng/ml], NUGC-4 10cF7_5 sort3a p3151#10 cells, PBMC of Donor 2 [2] [ng/mL]	CDC EC50 [ng/ml], KATO-III FGF-BP#12 adM p3151#25 cells [3] [ng/mL]	CDC EC50 [ng/ml], NUGC-4 10cF7_5 sort3a p3151#10 cells [3] [ng/mL]	EC50 [4] [µg/mL]	EC50 [5] [µg/mL]	EC50 [6] [µg/mL]	EC50 [7] [µg/mL]	EC50 [8] [µg/mL]	EC50 [9] [µg/mL]	EC50 [11] [µg/mL]	EC50 [12] [µg/mL]	Max. binding [MFI] [12] [MFI]	EC50 [15] [µg/mL]	Max. binding [MFI] [15] [MFI]	Cell viability EC50 [%] normalized to IMAB362, Fab-ZAP endocytosis assay [1] [%]	Max. viability reduction normalized [%], Fab-ZAP endocytosis assay [1] [%]	EC50 [16] [µg/mL]	EC50 normalized [%] [17] [%]	further results
B1	11	1230	142	19300	28000	0.113	0.104	1.12	0.31	1.24	3.67	2.38	1.24	5320	0.652	7950					Cell viability EC50 [ng/ml], Fab-ZAP endocytosis assay on HEK293~CLDN18.2 cells (second assay) [1]: 13 ng/mL; EC50 [10]: 0.584 µg/mL; Max. binding [MFI] [10]: 18500 MFI; EC50 [13]: 0.52 µg/mL; EC50 [14]: 0.584 µg/mL
B2	~30												0.654	4880			231	66	4.29	345	EC50 normalized [%] [18]: 53%
B3		1080	275	7240	28300	0.261	0.183	1.59	0.103		5.46	4.05									EC50 [ng/ml] of reduction of cell viability (XTT, 72 h), BxPC-3~CLDN18.2 cells [19]: 48 ng/mL; EC50 [ng/ml] of reduction of cell viability (XTT, 72 h), BxPC-3~CLDN18.2 cells, second assay [19]: 43 ng/mL; EC50 [ng/ml] of reduction of cell viability (XTT, 72 h), NCI-N87~CLDN18.2 cells, second assay [19]: 180 ng/mL; EC50 [ng/ml] of reduction of cell viability (XTT, 72 h), NUGC-4 10cE8 cells [19]: 631 ng/mL; EC50 [ng/ml] of reduction of cell viability (XTT, 72 h), NUGC-4 10cF7-5 sort 3a cells [19]: 338 ng/mL; EC50 [20]: 2.83 µg/mL; EC50 [21]: 2.52 µg/mL
B4		1150	217	6440	15800	0.425	0.507	1.47	0.274		7.49	3.91									EC50 [ng/ml] of reduction of cell viability (XTT, 72 h), BxPC-3~CLDN18.2 cells [19]: 43 ng/mL; EC50 [ng/ml] of reduction of cell viability (XTT, 72 h), BxPC-3~CLDN18.2 cells, second assay [19]: 54 ng/mL; EC50 [ng/ml] of reduction of cell viability (XTT, 72 h), NCI-N87~CLDN18.2 cells [19]: 75 ng/mL; EC50 [ng/ml] of reduction of cell viability (XTT, 72 h), NUGC-4 10cE8 cells [19]: 372 ng/mL; EC50 [ng/ml] of reduction of cell viability (XTT, 72 h), NUGC-4 10cF7-5 sort 3a cells [19]: 155 ng/mL; EC50 [20]: 3.05 µg/mL; EC50 [21]: 2.6 µg/mL
B5	10									5.7							91	86			EC50 normalized [%] [22]: 459%
B6	2.2												4.29	5910	2.24	8830	17	66	0.654	53	EC50 normalized [%] [18]: 345%; Max. binding normalized [%] [18]: 111%; EC50 normalized [%] [23]: 343%; Max. binding normalized [%] [23]: 111%
